{"source": "the DeepSol protein solubility set", "data": [{"assay": "soluble on expression in E. coli; label from the status in PepcDB or PDB records", "values": [{"sequence": "MSLAIIPGVEQKPMSSNLESRIDQGTGREPADMVLKGGRFFDLVTGELVASDIAICGDTVVGTCGDYKGRHEIDISGKIVVPGFIDTHLHIESSLVTPHEFDRCVLPYGVTTAICDPHEIANVLGAEGLQFFLDSAMETIMDIRVQLSSCVPATHLETSGADLPIEKLLPFRNHPKVIGLAEFMNFPGVIHKDPVCMAKLEAFQGQHIDGHAPLLSGAALNGYLAAGIRTEHECTSAAEALEKIRKGMHILVREGSVSKDLHALMPIITERLSPYLALCTDDRNPLDIAEQGHLDYMIRTAIASGVEPLAIYRAASISAAKAFGLRDRGLVAPGWRADLVVIDTLQNCKASMVLSGGRLVDDALFATRKPVAPVGLDSVKARPVLASHFGVPVTEGETPVMGVLPGKIITEHRRYKLPTDGNQTTVDLENDIIKVAVIERHGKNGNHANGFVQGFGLKKGAIASTVGHDSHNICVVGVSEDDMALAANRLGDIKGGFVVVEDGRVTGEIALPVAGLMSLEPYETVRDTLHTLRKAAYALGTTLEEPFLQVAFLPLPVIPHLKISDMGMVDVDRFALIEGHHHHHH", "soluble on expression in E. coli": "soluble"}, {"sequence": "MSLAIQMTTKTTYQWPQSKDIYPYRPGRFDAPKHWRYNLRSFLNRGSIRRFEQFINQHPFLIDIFNTHLDYSYPVACRFLDKRFNASQRFHAVCENLLFLPEKLTALSTPLWEKPLSFGEVIPDFEMTLSMTTHQPMEGYWVLELWHKPRNELVYLLTFAKLGDALLIAVVQGPNFEGSKEMVKQLTKLCHGLRPAYLMVETMKSLTKILGYNKLLGIPQKYQNKSRFIQSKQYTVDYDAIFGESGGELKDYWELPLEMDRNLDDIPSKKRSMYRKRYAMLDDLAKVIEEKLGLEGHHHHHH", "soluble on expression in E. coli": "not soluble"}, {"sequence": "MSLAKKILVTGAGGYIGRHVVSALLDAGQDVIASDLRLDGVDERATKVQANIFEPNDNLFEELGAPDVCLHMAWRDGFKHNSDNHMGDLSNHYRFLKHMLDSGLKQIAVMGTMHEVGYWEGAIDENTPCHPASMYGIAKNALREATLMLAKEYDATAQWIRAYYIVGDDAHGNSIFSKLLQAANDGKATFPFTTGKNKYDFIDVDELARQISAVVSQDAVDGVINCCTGEPMTLAERVERYIKENDLNIKLDYGAFPDRPYDSPGVWGDASKINKIMKEGHHHHHH", "soluble on expression in E. coli": "soluble"}, {"sequence": "MSLAKRIKIDNASSKFRRQSQKREQKVIRCSVLIVCEGTKTEPNYFEAFAEKQQGVIVYDIEVKGLGRGTKDVVEKAIDLKNKNNYDRVWAVFDRDEFPAKDFNEAIAMGQKNSIEVAWSNEAFELWYLYHFQNVITGVSRKDYEEKISTAVNASPKYKSKKKYRYAKKDPNNYKIMTTYGSMESALRYAEAKHLEYADSRYANQNPCTTIYQLVRQLLGRDEKLNAELIARIGENEGHHHHHH", "soluble on expression in E. coli": "soluble"}, {"sequence": "MSLALFYGRKITVAGISKRGSETALEISEKLSEKGLAVKCYSRSNLKGCNTYIGSTQNFVLSEVRKSDVLVLVMSLGGAVRIIEKASILKEEGIAVIVVDDYGRYAIPIVNGHSGSANVFARLISELIGSEYIITDAVELNGLMSVEEMSRRLYCTIANPECVLKINTALANGDPVFARNESSKRKHAFEMIKYPWKTYSRSDDAKIIITDRPGEGGEICYLVPDDISVGIGFTGKADPYNIKKRIEEVLLSLGLGYDDVNCVSSLRYNKFLSELIKDNGTEFRTFSADDLKSVDVSLLSHISEEAEEKLGIPGSAEPSALLSLGPGSRIIYPFTKFDHSMTISVASRREGHHHHHH", "soluble on expression in E. coli": "soluble"}, {"sequence": "MSLALIVQKFGGSSVGSVERIQAVAQRVYKTVKAGNSLVVVVSAMGKTTDGLVKLANEISRNPNRREMDMLLSTGEQVTIALLSMALQELGQPAISMTGAQVGIVTEAEHTRARILHIETERVEGHIKEGKVVVVAGFQGISSNGSLEITTLGRGGSDTSAVALAAALQADFCEIYTDVPGILTTDPRIVPEAQLMGEITCNEMLELASLGAKVLHPRAVEIARNYGMPLVVKSSWTDDPGTWVTTPKPQGRSLINLELARPVDDVELDTDQAKVALLRVPDKPGVAAKLFGEISRQKVDVDLIIQSIHEGNSNDIAFTVTTPILKRAEAVAAAIAPSLRSPSHPKSDEAEVMVEQNIAKVSIAGAGMIGRPGVAAQMFATLAEAGVNIQMISTSEVKVSCVIDAQDGDRAIIALRKAFEIETPLHSQLPTPSSLSTHNSPPVRGVALDLNQARLAIRQVPDRPGMAAQLFGILSQHNISVDMIIQSQRCRIVDGVPRRDIAFTVPRMDGETAQKLLCQVAPELGWGDVVLDSAIAKVSIVGAGMVGQPGVAAKMFEALAKHQINIQMIATSEIKISCVVSQEQGVQALQVIHTAFELAGTEKFVVPAEGHHHHHH", "soluble on expression in E. coli": "not soluble"}, {"sequence": "MSLANYIKDIREKVGHMPLIMVGVGAAYIKEEKVLLQERADTGGWGLPGGYMEYGESIEQTLKREFKEDAGLEIIDYKFLKNFDREFFKYPNGDQTQVLTPFYLVTKVKEGKPQFDPHETSRVDFFDFNDLPEIHFASHKRILTYLQDILEGHHHHHH", "soluble on expression in E. coli": "not soluble"}, {"sequence": "MSLAPAQRAFSDWQVTCNNQNFCVARNTGDHNGLVMTLSRSAGAHTDAVLRIERGGLKSPDASEGEIAPRLLLDGEPLALSGDKWRISPWLLVTDDTATITAFLQMIQEGKAITLRDGNQTISLSDLKAALLFIDAQQKRVGSETAWIKKGDEPPLSVPPAPALKEVVVVNPTPTPLSLEERNDLLDYGNWRMNGLRCSLDPLRREVNVTALTDDKALMMISCEAGAYNTIDLAWIVSRKKPLASRPVRLRLPFNNGQETNELELMNATFDEKSRELVTLAKGRGLSDCGIQARWRFDGQRFRLVRYAAEPTCDNWHGPDAWPTLWITREGHHHHHH", "soluble on expression in E. coli": "soluble"}, {"sequence": "MSLAPSNSLEICGDGVKNPTTFTRAQLEDMPQYQQVYSSINTWPSKKWYVGKGVHLSELLSLVGIKDDARLLKFTSQDGYTMTLTVKELLVDKRYYFPHFNDNKIGDGEGNIAGSSQGAELVEPIIALISVEGSNNPNYMNDLNTLVLMMGQRAVTEQTGNAFVKYLNKIEVLTSEVPKWDSPQANPGSGEVSAGTMIALSTARMDDDKIYYTTDGSTPNLNSPIYNWIAKRWWSARADILGTYNHPIGPINENTTIKAITIGPGKENSDVATFTYTVPVSKPASETSIVAPNEATNYPDQALEKPLQSEPKATLTDVQNHWAQKNINELIASGIAGGYPDSSFRPDNTITRAEFATMLVKAFNLQNQGGKVFADSEQHWAKEYISRATASGVVSGYDAENFGPDKLITREQMAVMISKAAKLVLKAEAMHFADSAGISEWAKEAVLAANQSGIVKGYPDNTIRPQGSATRAEAVTVIVNALTLKEGHHHHHH", "soluble on expression in E. coli": "soluble"}, {"sequence": "MSLAQFVDWDLAAATAGTLGKTGPRVSYVEATAVVGDLRQLTDEAAEHVADFTGLRSQVSHPPVQVVDRRDWAATNVAGLREMIGPLVGRLAGDKQPSVLTEAIGSRITGVQAGTVLAYLSGRVLGQYEVFSGEPGQLLLIAPNIVEVERKLAADPRDFRMWVCLHEVTHRTQFTAVPWLRAYFLGEVQAFVDASSSGGEPLVERLRRGITVLADAVREPAGRTSVLDIVQTPAQKAVLDRLTALMTLLEGHAEFVMDGVGPQVIPSVERIRASFNRRRESGNPLEKALRRLLGVEVKLRQYAEGRSFVHGVVERVGMEGFNRVFASPLTLPRLAELSDPDAWVARVHGPAGPLPAGDEGHHHHHH", "soluble on expression in E. coli": "soluble"}, {"sequence": "MSLARKNTATRQVIHIVGEGLTELFYFSHLKKILGYRYSISPRLFENNSIEKIEKKIKELLDEDVFVICVFDADVSRRSDAENKKMVSFKKKYENNPNVILCDSLQSIEYWFLLHFEDTCRHFQDSAATERALKQYLPTYDKTRKYLEKDKWVKEMLAGSKMDKACELAEKYKGRDSYSEIYKAIKKVSQNEGHHHHHH", "soluble on expression in E. coli": "soluble"}, {"sequence": "MSLARRVGIYTRISRDDEGDALGVARQHRDCERLADLRSWQAVKVYEDNDVSAYKRHVVREQFELMLSDLGAGLIDGIVAYDLDRLARQPRDLERLIEIFDERPRLEFATVTNDVNLGTPDGRTMSRIMVAFANKSSHDASRRIKRKHLELAQQGKDSGGPAPYGWLKEDRSKVDPKAAAAIREAQREILAGVRIGTIRTRWQEQGLGNPRAGTKRMAHHHVEHILTSPRLVGYRTYHGEVLNDEDGRPVMGEWEAINTLEEWEAVCAAVAERKQKQPGRSLARKYMLSGIARCGLCKTKIRGQINQRWQPGSKATKFTYQCSVVNGGCGKVGRVGEPVDRLIAELALEEQRARAAATTVPIDQRWSRNAELEQVNDDITQLVNAERSKQITVTTLLQLLPGKERQRDELKLERARFYKELKQSEAKGDAANLTLDEFFGLPIERQQEIVLHRLSAVIIHPAGKGRRRFDPSLIEPVWREGHHHHHH", "soluble on expression in E. coli": "soluble"}]}]}
